Earlier results, collected in patent US7696205B2, “Cyclic derivatives as modulators of chemokine receptor activity” (Bristol-Myers Squibb Company, priority 2003, dated 2010).

System: MCP-1 expression in peripheral blood mononuclear cells
Settings: effective therapy in human multiple sclerosis

B1: interferon b-1b: effective therapy in human multiple sclerosis (protein, UniProt P01574 22-187, looked up, variant C17S)
Interferon beta: MSYNLLGFLQRSSNFQSQKLLWQLNGRLEYCLKDRMNFDIPEEIKQLQQFQKEDAALTIYEMLQNIFAIFRQDSSSTGWNETIVENLLANVYHQINHLKTVLEEKLEKEDFTRGKLMSSLHLKRYYGRILHYLKAKEYSHCAWTIVRVEILRNFYFINRLTGYLRN
effect on MCP-1 expression in peripheral blood mononuclear cells: reduces MCP-1 expression
